Laboratory results as given in article doi:10.1101/2025.03.21.644400.

Target: MIYEI
Assay: crystal structure

- stoichiometry N: 2
Substance: MIYEI
